In patent CN116554324A (SANYOU BIO INC, dated 2023):

T1: Mus4-1BB-hFc (mouse; human, UniProt P20334 24-187)
T1 construct: range 24-187; also called 鼠4-1BB抗原蛋白Mus4-1BB-hFc; not shown: Fc tag made by the same method as for hu4-1BB-hFc (human IgG1 Fc fragment)
T1 sequence (looked up): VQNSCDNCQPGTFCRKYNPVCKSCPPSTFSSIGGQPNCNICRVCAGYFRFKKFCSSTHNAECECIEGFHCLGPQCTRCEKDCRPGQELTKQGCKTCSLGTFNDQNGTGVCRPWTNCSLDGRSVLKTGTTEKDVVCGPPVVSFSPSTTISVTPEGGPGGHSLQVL


Columns and labels:
Mus4-1BB-hFc = molecular target: T1, Mus4-1BB-hFc; assay: ELISA, Mus4-1BB-hFc coated at 2 μg/mL, anti-human kappa+lambda-HRP
hu4-1BB-His = molecular target: T2, hu4-1BB-His (human, UniProt Q07011 24-186); assay: ELISA, hu4-1BB-His coated at 2 μg/mL, anti-human IgG Fc-HRP
T2 construct: range 24-186; Expressed in ExpiCHO and purified on Ni beads; also called 抗原蛋白hu4-1BB-His; 人4-1BB抗原蛋白; not shown: C-terminal His tag

生物素化的hu4-1BB-hFc = molecular target: T3, 生物素化的hu4-1BB-hFc (human, UniProt Q07011 24-186, EZ-Link Sulfo-NHS-LC-biotin label; the sites are not stated); assay: ELISA
T3 construct: range 24-186; also called 生物素标记的hu4-1BB-hFc抗原蛋白; biotinylated hu4-1BB-hFc; not shown: human IgG1 Fc fragment fused at the C-terminus

hu4-1BB-hFc = molecular target: T4, hu4-1BB-hFc (human, UniProt Q07011 24-186); assay: ELISA
T4 construct: range 24-186; also called 4-1BB-Fc; not shown: human IgG1 Fc fragment fused at the C-terminus

[1] = molecular target: T5, 人4-1BB (Uniprot编号Q07011), expressed on cells (human, UniProt Q07011 24-255); assay: flow cytometry on hu4-1BB-CHO cells
T5 construct: whole, on cells; also called hu4-1BB-CHO; 人4-1BB过表达细胞
T5 sequence (Q07011 24-255): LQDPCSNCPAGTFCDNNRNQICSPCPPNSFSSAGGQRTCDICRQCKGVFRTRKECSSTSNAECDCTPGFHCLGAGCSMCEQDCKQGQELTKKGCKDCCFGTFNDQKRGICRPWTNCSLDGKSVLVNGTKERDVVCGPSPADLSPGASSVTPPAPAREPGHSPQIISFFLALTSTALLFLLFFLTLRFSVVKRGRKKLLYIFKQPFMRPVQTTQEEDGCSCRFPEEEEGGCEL

Binder	binding result (Mus4-1BB-hFc)	EC50 (hu4-1BB-His) [µg/mL]	binding result (生物素化的hu4-1BB-hFc)	binding result (hu4-1BB-hFc)	binding result [1]	binding result (hu4-1BB-His)
99-2-17 (antibody, human IgG4 S228P, lambda, V domains shown, also called 抗体99-2-17; 母本抗体99-2-17) VH: QVQLVQSGGGLVQPGGSLRLSCSASGFTFSSYAMHWVRQAPGKGLEYVSAISSNGGSTYYADSVKGRFTISRDNSKNTLYLQMSSLRAEDTAVYYCVKGSGWSPIDAFDIWGQGTMVTVSS VL: QSALTQPPSVSGAPGQRVTISCTGSSSNIGAGYDVHWYQQLPGTAPKLLIYGNSNRPSGVPDRFSGSKSGTSASLAITGLQAEDEADYYCQSYDSSLSGSGAVFGGGTQLTVLG	binds	0.411	–	–	–	–
Ag10058 (antibody, human IgG4 S228P, kappa, V domains shown, also called 阳性对照抗体Ag10058) VH: EVQLVESGGGLVQPGGSLRLSCAASGFSLSTSGVGVGWIRQAPGKGLEWLALIDWDDDKYYSPSLKSRLTISRDNSKNTLYLQLNSLRAEDTAVYYCARGGSDTVLGDWFAYWGQGTLVTVSS VL: DIQLTQSPSSLSASVGDRVTITCRASQSVSPYLAWYQQKPGKAPKLLIYDASSLESGVPSRFSGSGSGTDFTLTISSLQPEDFATYYCQQGYSLWTFGQGTKVEIKR	–	–	binds	binds	–	–

Further lines, results first:

binding result (Mus4-1BB-hFc)	EC50 (hu4-1BB-His) [µg/mL]	binding result (生物素化的hu4-1BB-hFc)	binding result (hu4-1BB-hFc)	binding result [1]	binding result (hu4-1BB-His)	Binder
–	–	binds	binds	binds	binds	Ag10131 (antibody, human IgG4 S228P, kappa, V domains shown, also called 阳性对照抗体Ag10131; 对照抗体Ag10131) VH: EVQLVESGGGLVQPGGSLRLSCAASGFSLSTGGVGVGWIRQAPGKGLEWLALIDWADDKYYSPSLKSRLTISRDNSKNTLYLQLNSLRAEDTAVYYCARGGSDTVIGDWFAYWGQGTLVTVSS VL: DIQLTQSPSSLSASVGDRVTITCRASQSIGSYLAWYQQKPGKAPKLLIYDASNLETGVPSRFSGSGSGTDFTLTISSLQPEDFATYYCQQGYYLWTFGQGTKVEIKR
binds	0.35	–	–	–	–	99-2-35 (antibody, human IgG4 S228P, kappa, V domains shown, also called 抗体99-2-35; 母本抗体99-2-35) VH: EVQLLESGGGLVQPGGSLRLSCAASGFTFSSYEMNWVRQAPGKGLEWVSYISSSGSTIYYADSVKGRFTISRDNAKNSLYLQMNSLRAEDTAVYYCARDFNGGYSYYPIAFDIWGQGTMVTVSS VL: EIVLTQSPATLSLSPGERATLSCRASQSVSSYLAWYQQKPGQAPRLLIYDASNRATGIPARFSGSGSGTDFTLTISSLEPEDFAVYYCQQRSNWPPMYTFGQGTKLEIKR
